The source of these data is patent US20060079439A1, “Elastin prevents occlusion of body vessels by vascular smooth muscle cells” (priority 2002, published 2006).

Like-named read-outs stand apart in the source and are kept apart here.

Data set [1] relates to vascular smooth muscle cells. Type of data set: cell-based, mouse. Here is the method: (§1) Instead, we postulated that elastin signals vsmcs to migrate and adhere to the elastic lamellae. To test this hypothesis we used a modified Boyden chamber assay (Li et al., 1998; Raines et al., 1993). This assay system consists of two adjacent chambers separated by a semipermeable membrane. The amount of cells placed in one chamber (upper) that migrate to the other chamber (lower) is measured by counting the number of cells that have passed through to the undersurface of the filter.
Briefly, chemotaxis was measured using a modified Boyden chamber method. […] Prior to their addition to the upper chamber, vascular smooth muscle cells were incubated with either 20 μM EDTA (inhibitor of integrin receptors), 10 μM genistein (inhibitor of receptor tyrosine kinases), 100 ng/ml pertussis toxin, 100 ng/ml β-protomer, 20 μM Y27632, or the cells were left untreated. […] Cells were added to the upper chamber and incubated for three hours.

A further data set relates to RhoA. Kind of data set: RhoA activation, Rhotekin bead pull-down and Western blot. Type of data set: cell-based, mouse. Conditions: lysates of treated −/− cells. An excerpt: Briefly, cell lysates from treated or untreated −/− cells were immunoprecipitated using Rhotekin-coated beads which recognize GTP-bound RhoA. […] Rho-γGTP served as a positive control and Rho-GDP served as a negative control.
(In general: A western blot detects proteins with antibodies after separation by electrophoresis.)

The subject of data set [2] is cAMP levels in Eln −/− vsmcs. In kind it is cell-based, mouse. Conditions: for forskolin induced cAMP levels: 10 μM forskolin pretreatment, 1 ug/ml tropoelastin, 10 μM elastin peptide or control peptide. (In general: Cyclic AMP is a second messenger, typically raised through Gs and lowered through Gi signalling.)
Data set [3] deals with Eln −/− vascular smooth muscle cells. Kind of data set: Focal adhesion organization, vinculin immunofluorescence. In kind it is cell-based, mouse. Conditions: 3 hours, 1 ug/ml tropoelastin, 10 nM elastin peptide or 10 nM control peptide.
The test system of data set [4] is −/− vascular smooth muscle cells. Kind of data set: F:G actin ratio, sedimentation assay. Type of data set: cell-based, mouse. Conditions: versus untreated cells.
In data set [5] the test system is Eln −/− vascular smooth muscle cells. Conditions: for formation of organized actin stress fibers / actin myofilament polymerization: 3 hours, 1 ug/ml tropoelastin, 10 nM elastin peptide or 10 nM control peptide.
Data set [6] concerns α smooth muscle actin and vinculin in elastin −/− vascular smooth muscle cells. Kind of data set: Western blot of protein levels. Type of data set: cell-based, mouse. Conditions: three hours; 1 μg/ml tropoelastin, 10 μM elastin peptide. Here is the method:
We performed two experiments to address this model. […] Cells were washed with ice-cold DPBS and lysed in an additional 1 ml of Laemmli sample buffer. Following lysis, cells were collected, boiled, pelleted, and resolved by SDS-PAGE. The resolved samples were transferred to a membrane, blocked with 5% milk/PBST, incubated with either an anti-α smooth muscle actin antibody or an anti-vinculin antibody, and visualized using chemiluminescence.

Data set [7] has as its system Eln +/+ and Eln −/− vsmcs. Conditions: trypan blue, end of the experiment (72 hours).
Data set [8] has as its system GiRK channel (GiRK 1 and GiRK 4) in A2058 cells. Kind of data set: GiRK channel activity in transfected A2058 cells. In kind it is cell-based. Conditions: A2058 cells transiently transfected with GiRK 1 and GiRK 4. An excerpt:
Briefly, A2058 cells which are known to be responsive to elastin signaling were used in these studies. A2058 cells were transiently transfected with GiRK 1 and GIRK 4 inorder to form functional heteromultimeric GiRK channels. Transfected cells were contacted with either tropoelastin, a peptide containing 7 repeats of the tropoelastin fragment VGVAPG, or a control peptide.

Data set [9] relates to Eln +/+ and Eln −/− vsmcs. Conditions: added to the media; 24, 48, and 72 hours.
Data set [10] relates to Eln +/+ vascular smooth muscle cells. Kind of data set: Actin stress fiber organization, immunofluorescence scoring. In kind it is cell-based, mouse. Conditions: elastin treatment.
The test system is the same in data set [11]. Conditions: recombinant tropoelastin treatment.
The test system of another data set is COS cells. Kind of data set: Modified Boyden chamber chemotaxis assay. Type of data set: cell-based.
Text: as §1, with “In Eln −/− arteries, vascular smooth muscle cells accumulated in the subendothelial space and occluded the artery. […] Because the elastic lamellae are highly fenestrated allowing cells to migrate through, it is unlikely that elastin simply forms a physical cage that contains vsmcs. Instead,” for “Instead,”

The subject of the next data set is CHO cells. Kind of data set: Modified Boyden chamber chemotaxis assay. In kind it is cell-based.
Text: as §1, with “In Eln −/− arteries, vascular smooth muscle cells accumulated in the subendothelial space and occluded the artery. […] Because the elastic lamellae are highly fenestrated allowing cells to migrate through, it is unlikely that elastin simply forms a physical cage that contains vsmcs. Instead,” for “Instead,”

[12] abbreviates: listed as recombinant tropoelastin.

On to “VGVAPG (A bioactive fragment of tropoelastin.) [elastin peptide]”, for which the “vascular smooth muscle migration relative to tropoelastin and PDGF” value in data set [1] (20 nM elastin peptide, three hours) was “comparable to both tropoelastin and PDGF”. Besides, the “GTP-bound (activated) RhoA” value in the data set with RhoA is recorded as “significant increase”. In data set [2], the “forskolin induced cAMP levels” value is recorded as “decrease”. In addition, in data set [3], the “organization of focal adhesions (vinculin)” value was “induced organization of focal adhesions”. In addition, in data set [4], the “increase in the F:G actin ratio” value is listed as 3 fold. Moreover, the “formation of organized actin stress fibers / actin myofilament polymerization” value in data set [5] is recorded as “induced actin myofilament polymerization”. Besides, in [5] (three hours, 0.2 nM to 20 μM), the “dose dependence of the increase of actin stress fibers” value is on record as “dose dependent”. Further, in data set [5] (time course 15 minutes to 24 hours), the “treatment time of maximal effect on actin stress fiber formation” value was “about 6 hours”. For the same molecule, the “protein levels of α smooth muscle actin or vinculin” value in data set [6] is “does not alter”.

B1: tropoelastin: protein encoded by the elastin gene; human amino acid sequence SEQ ID NO: 2; used as recombinant tropoelastin (protein, listed as Homo sapiens)
chain: MAGLTAAAPRPGVLLLLLSILHPSRPGGVPGAIPGGVPGGVFYPGAGLGALGGGALGPGGKPLKPVPGGLAGAGLGAGLGAFPAVTFPGALVPGGVADAAAAYKAAKAGAGLGGVPGVGGLGVSAGAVVPQPGAGVKPGKVPGVGLPGVYPGGVLPGARFPGVGVLPGVPTGAGVKPKAPGVGGAFAGIPGVGPFGGPQPGVPLGYPIKAPKLPGGYGLPYTTGKLPYGYGPGGVAGAAGKAGYPTGTGVGPQAAAAAAAKAAAKFGAGAAGVLPGVGGAGVPGVPGAIPGIGGIAGVGTPAAAAAAAAAAKAAKYGAAAGLVPGGPGFGPGVVGVPGAGVPGVGVPGAGIPVVPGAGIPGAAVPGVVSPEAAAKAAAKAAKYGARPGVGVGGIPTYGVGAGGFPGFGVGVGGIPGVAGVPSVGGVPGVGGVPGVGISPEAQAAAAAKAAKYGVGTPAAAAAKAAAKAAQFGLVPGVGVAPGVGVAPGVGVAPGVGLAPGVGVAPGVGVAPGVGVAPGIGPGGVAAAAKSAAKVAAKAQLRAAAGLGAGIPGLGVGVGVPGLGVGAGVPGLGVGAGVPGFGAGADEGVRRSLSPELREGDPSSSQHLPSTPSSPRVPGALAAAKAAKYGAAVPGVLGGLGALGGVGIPGGVVGAGPAAAAAAAKAAAKAAQFGLVGAAGLGGLGVGGLGVPGVGGLGGIPPAAAAKAAKYGAAGLGGVLGGAGQFPLGGVAARPGFGLSPIFPGGACLGKACGRKRK
The cell viability is a read-out of living cells in per cent, often relative to untreated cells. Low values mean a greater loss of cells, high ones better survival. In data set [7], B1 registered a cell viability of over 98%. Also, the “migration of murine vsmcs to recombinant tropoelastin” value in data set [1] is recorded as “migrated aggressively”. The “migration without concentration gradient (checkerboard analysis)” value in [1] (200 ng to 200 ng gradient) is recorded as “minimal migration”. Further, the “amount of migration induced, relative to platelet derived growth factor” value in data set [1] (data not shown) is recorded as “equivalent to the standard dose of 30 ng/ml of platelet derived growth factor”. Also, the “migration of Eln +/+ vsmcs relative to Eln −/− vsmcs” value in data set [1] (exogenous tropoelastin) was “did not migrate towards exogenous tropoelastin as readily as Eln −/− vsmcs”. Moreover, in the data set on RhoA, the “GTP-bound (activated) RhoA” value is recorded as “significant increase”. Further, the “cAMP levels in the presence of cholera toxin” value in data set [2] is recorded as “significantly reduced”. For the same molecule, the “forskolin induced cAMP levels” value in [2] is reported as “decrease”. The “increase in cAMP” value in [2] (elastin treatment alone) is listed as 3 fold. Also, the “level of cAMP in the presence of pertussis toxin” value in data set [2] (pertussis toxin and elastin) is reported as “raises the level of cAMP”. In addition, in data set [8], the GiRK channel activity entry is recorded as “activation”. The “organization of focal adhesions (vinculin)” value is listed as “induced organization of focal adhesions” in [3] and “induces well-defined focal adhesions” in data set [3] (setting [12]). Besides, the “proliferation of Eln −/− and Eln +/+ vsmcs” value in data set [9] is “reduced to similar levels”. Moreover, the “actin stress fiber organization in Eln +/+ cells” value in data set [10] (listed as elastin) was “no affect”; in [10] (setting [12]), “does not affect”. Further, in [11], the “vinculin organization in Eln +/+ vsmcs” value is listed as “does not affect vinculin organization”. Further, in data set [4], the “increase in the F:G actin ratio” value was found to be 3 fold. Moreover, in the data set on COS cells, the “migration of COS cells exposed to elastin” value was “No migration”. In addition, the “migration of CHO cells exposed to elastin” value in the data set on CHO cells is reported as “No migration”. Further, the “formation of organized actin stress fibers / actin myofilament polymerization” value in data set [5] is listed as “induced actin myofilament polymerization”; in data set [5] (setting [12]) it was “induces the formation of organized actin stress fibers”. Further, in data set [6], the “protein levels of α smooth muscle actin or vinculin” value is on record as “does not alter”.
